The record followed here is patent US20260132200A1 (Regeneron, published 2026).

The chains are these.
B1: H1H5786B (antibody, human IgG1, V domains shown)
VH: QVQLVESGAEVKKPGASVKVSCKTSGYTFTGYYMHWIRQAPGQGLEWMGWINPKSGGTNYAQKFQGRVTMTRDTSISTAYMELSRLRSDDMAVYYCARMGDGAVFDFWGQGTLVTVSS
VL: AIQMTQSPSSLSASVGDRVTITCRASQRISSFLNWYQQKPGKAPKLLIYTASNLQNGVPSRFSGSGSGTDFTLTISSLQPEDFATYYCQQSYRTPLTFGGGTKVEIKR
B2: H1H5795B (antibody, human IgG1, V domains shown)
VH: EVQLVESGAEVKKPGASVKVSCKTSGYSFIGYYIHWMRQAPGQGLEWMGWINPKSGVTNYAQRFQGRVTMTRDTSISTAYMELSRLKSDDTAVYFCARMGDGAVFDFWGQGTLVTVSS
VL: DIQLTQSPSSLSASVGDRVTITCRASQRISSFLNWYQQKPGKVPKLLIYTASNLQNGVPSRFSGTGSGTDFTLTISSLQPEDFATYYCQQSYRTPLTFGGGTKVDIKR
B3: H1H5792B (antibody, human IgG1, V domains shown)
VH: QVQLVESGGGVVQPGRSLRLSCAASGFTFSSYGMHWVRQAPGKGLEWVSTISFDGSNKYYADSVKGRFTISRDNSKNTLYLQMNSLRPEDTAVYYCAKGGGTSGSYFYYGMDVWGQGTTVTVSS
VL: AIQMTQSPSSLSASVGDRVTITCRASQRISSFLNWYQQKPGKAPKLLIYTASNLQNGVPSRFSGSGSGTDFTLTISSLQPEDFATYYCQQSYRTPLTFGGGTKLEIKR
B4: H1H5790B (antibody, human IgG1, V domains shown)
VH: EVQLVESGGGVVQPGRSLRLSCAASGFTFSYYGMHWVRQAPGKGLEWVAVISFDGKNKYYADSVMGRFTISRDNSKNTLYLQMNSLRAEDSAVFFCARSYDILTGYGAGYSYHYGMDVWGQGTTVTVSS
VL: AIQMTQSPSSLSASVGDRVTITCRASQRISSFLNWYQQKPGKAPKLLIYTASNLQNGVPSRFSGSGSGTDFTLTISSLQPEDFATYYCQQSYRTPLTFGGGTKVEIKR
B5: H1H5791B (antibody, human IgG1, V domains shown)
VH: QVQLVESGAEVKKPGASVKVSCKTSGYTLSGYYMHWMRQAPGQGLEWMGWINPKSGVTNYAQKFQDRVAMTRDTSISTAYMELSRLRSDDTAVYYCARMGDGAVFDFWAQGTLVTVSS
VL: DIQLTQSPSSLSASVGDRVTITCRASQRISSFLNWYQQKPGKAPKLLIYTASNLQNGVPSRFSGSGSGTDFTLTISSLQPEDFATYYCQQSYRTPLTFGGGTKLEIKR
B6: H1H5788P (antibody, V domains shown)
VH: EVQLVESGGGLVQPGRSLRLSCAASGFTFDDYTMHWVRQAPGKGLEWVSGISWNSGSIGYADSVKGRFTISRDNAKNSLYLQMNSLRAEDTALFYCAKDQSGYGHYYYGMDVWGQGTTVTVSS
VL: EIVMTQSPATLSVSPGERATLSCRASQSVSSNLAWYQQKPGQAPRLLIYGASTRATDIPARFSGSGSGTEFTLTISSLQSEDFAVYHCQQYNNWPLTFGGGTKVEIK
B7: H1H5755B (antibody, human IgG1, V domains shown)
VH: EVQLVESGGGVVQPGRSLRLSCAASGFTFSNYGMHWVRQAPGKGLEWVTVILHDGSYKYYADSVKGRFTISRDNSKNTLHLQMNSLRTEDTAVYYCAKGPMFRGVPYNHYYGMDVWGQGTTVTVSS
VL: DIQMTQSPSSLSASVGDRVTITCRASQGIRNDLGWYQQKPGKAPKRLIYAASSLQSGVSSRFSGSGSGTEFTLTISSLQPEDFATYYCLQHNSYPYTFGQGTKVEIKR
B8: H1H5757B (antibody, human IgG1, V domains shown)
VH: EVQLVESGGGVVQPGRSLRLSCAASGFTFSSYGMHWVRQAPGKGLEWVTVILHDGSNRYSADSVKGRFTISRDNSKNTLYLQMNILRVEDTAVYYCTKGAMVRGVPYNHYYGMDVWGQGTTVTVSS
VL: DIQMTQSPSSLSASVGDRVTITCRASQGIRNDLGWYQQKPGKAPKRLIYAASILQSGVPSRFSGSGSGTEFTLTISSLQPEDFATYYCLQHNSYPYTFGQGTKLEIKR
B9: H1H5758B (antibody, human IgG1, V domains shown)
VH: EVQLVESGGGVVQPGRSLRLSCAASGFTFSSYGMHWVRQAPGKGLEWVTVILHDGSNRYYADSVKGRFTISRDNSKNTLYLQMNILRAEDTAVYYCTKGAMVRGVPYNHYYGMDVWGQGTTVTVSS
VL: DIVMTQSPSSLSASVGDRVTITCRASQGIRNDLGWYQQKPGKAPKRLIYAASNLQSGVPSRFSGSGSGTEFTLTISSLQPEDFATYYCLQHNSYPYTFGQGTKLEIKR
B10: H1H5793B (antibody, human IgG1, V domains shown)
VH: QVQLVQSGTEVKKPGASMKVSCKASGYTFTGYYIHWVRQAPGQGLEWMGWINPNSDVTKYAQKFQGRVTLTRDTSISAAYIDLSRLRSDDTAIYYCARMGDGAVFDYWGQGTLVTVSS
VL: DIQLTQSPSSLSASVGDRVTITCRASQRISSYLNWYQQKPGKAPKVLISVASSLQSGVPSRFSGSGFGTDFTLTISSLQPEDSASYYCQQSYNTPLTFGGGTKLEIKR
B11: H1H5797B (antibody, human IgG1, V domains shown)
VH: QVQLVQSGTEVKKPGASVKVSCKASGYTFTGYYMHWVRQAPGQGLEWMGWINPNSDVTNYAQKFQGRVTLTRDTSISTAYIDLSRLRSDDTAIYYCARMGDGAVFDYWGQGTLVTVSS
VL: DIQMTQSPSSLSASVGDRVTITCRASQRISSYLNWYQQKPGKAPKVLISVASSLQSGVPSRFSGSGSGTDFTLTISSLQPEDFASYYCQQSYNTPLTFGGGTKVEIKR
B12: H1H5778P (antibody, human IgG1, V domains shown)
VH: EVQLVESGGGLVQPGRSLRLSCVASGFTFADFTMHWVRQAPGKGLEWVSGISWNSNSIDYADSVKGRFTISRDNAKKSLFLQMSSLRAEDTALYYCVKDRSGYSRFYYGMDVWGQGTTVTVSS
VL: EIVMTQSPATLSVSPGERAILSCRASQNINSNLAWYQQKPGQAPRLLIYGASTRATGVPARFSGSGSGTEFTLTIRSLQSEDFAVYYCQQYYNWPITFGHGTRLEIK
B13: H1H5772S (antibody, human IgG1, V domains shown)
VH: QVQLVESGGGLVQPGRSLRLSCAASGFSFDDYAMHWVRQAPGQGLEWVSGISWNGGSRDYADSVKGRFTISRDNARNSLFLQMNSLFTEDTALYYCAKDKSGYGSYFYGMDVWGQGTTVTVSS
VL: EIVLTQSPGILSLSPGDRATLSCRASQSIRNIYLAWYQQKPGQAPRLLIHGASTRATGIPDRFSGSGSGTDFTLTISRLEPEDFAVYYCQQRVSSPYTFGQGTKLEIK
B14: H1H5781P (antibody, human IgG1, V domains shown)
VH: EVQLVESGGGLVQPGRSLRLSCAASGFTFDDFTMHWVRQAPGKGLEWVSDISWNSGSIDYADSVKGRFTISRDNARNSLFLQMSSLRTEDTASYYCIKDKSGYGSYNYGLDVWGQGTTVTVSS
VL: EIVLTQSPGTLSLSPGDRATLSCRASQSVSSIYLAWYQQKPGQAPRLLIHGASTRATGIPDRFSGSGSGTDFTLTISRLEPEDFALYYCHQRVSSPYTFGQGTKLEIK
B15: H1H5782P (antibody, human IgG1, V domains shown)
VH: EVQLVESGGGLVQPGRSLRLSCAASGFTFDDYAMHWVRQAPGKGLEWVSGISWNSGSKDYADSVKGRFTISRDNTRNSLFLQMNSLRTEDTALYYCAKDKSGYGSFYYGMDVWGQGTTVTVSS
VL: not shown
B16: H1H5780P (antibody, human IgG1, V domains shown)
VH: EVQLVESGGGLVQPGRSLRLSCAASGFTFDDYAMHWVRQAPGKGLEWVSGISWNGGSKDYADSVKGRFTISRDNTRNSLSLQMNSLRIEDTALYYCAKDKSGYGSFYYGLDVWGQGTTVTVSS
VL: EIVLTQSPGTLSLSPGDRATLSCRASQSIRSIYLAWYQQKPGQAPRLLIHGASTRATGIPDRFSGSGSGTDFTLTISRLEPEDFAVYYCQQRVSSPYTFGQGTKLEIK
B17: H1H5752P (antibody, human IgG1, V domains shown)
VH: QVQLVESGGGVVQPGRSLRPSCAASGFSFRDYGMHWVRQAPGKGLEWMAHIWYNGKNKYYADSVKGRFTISRDNSKNTLYLQMNSLRPEDTAVYYCARDGVSARGTPFDYWGQGTLVTVSS
VL: ETTLTQSPAFMSAAPGDKVSISCIASQYIDDDVNWYQQKPGETAIFIIQEASTLVPGISPRFSGSGYGTHFTLTINNIDSEDAAFYFCLQHDNFPYTFGQGTKLEIK
B18: H2M3548N (antibody, mouse IgG2, V domains shown)
VH: EVQLVESGGGLVQPGRSLRLSCAASGFKFADYAMHWVRQAPGKGLEWVSEISWNSGSIGYVDSVKGRFTISRDNAKNSLYLQMNSLRAEDTALYYCVKDKSGYGHYYIGMDVWGQGTTVIVSS
VL: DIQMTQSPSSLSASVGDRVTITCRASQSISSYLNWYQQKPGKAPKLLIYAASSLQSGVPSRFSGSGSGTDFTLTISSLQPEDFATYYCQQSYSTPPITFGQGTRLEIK
B19: H1M3549N (antibody, mouse IgG1, V domains shown)
VH: EVQLVESGGGLVQPGRSLRLSCVASGFPFADYTMHWVRQAPGKGLEWVSDISWNSGSIGYADSVKGRFTISRDNAKNSLYLQMNSLRTEDTALYYCAKDMSGYAHYFYYGMDVWGQGTTVTVSS
VL: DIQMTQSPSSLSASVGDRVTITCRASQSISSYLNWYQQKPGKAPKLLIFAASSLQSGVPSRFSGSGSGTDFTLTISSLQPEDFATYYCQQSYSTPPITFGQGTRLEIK
B20: H2M3563N (antibody, mouse IgG2, V domains shown)
VH: EVHLVESGGGLVQPGRSLRLSCAASGFTFDDYTMHWVRQAPGKGLEWVSDISWNSGSIGYADSVKGRFTVSRDNAKNSLYLQMNSLRGEDTALYYCAKDMSGYGHYGKYGMDVWGQGTTVTVSS
VL: DIQMTQSPSSLSASVGDRVTITCRASQSIRSYLNWYQQKPGKVPKLLIYAASSLQSGVPSRFSGSGSGTDFTLTINSLQPDDFATYYCQQTYSNPPITFGQGTRLEIK
B21: H1M3613N (antibody, mouse IgG1, V domains shown)
VH: EVQLVESGGGLVQPGRSLKLSCTASGFTFADYTMHWVRQGPGKGLEWVSDISWNSGSKGYADSVKGRFTISRDNAKNSLYLQMNSLRTEDTALYYCAKDMSGYAHYYYYALDVWGQGTTVTVSS
VL: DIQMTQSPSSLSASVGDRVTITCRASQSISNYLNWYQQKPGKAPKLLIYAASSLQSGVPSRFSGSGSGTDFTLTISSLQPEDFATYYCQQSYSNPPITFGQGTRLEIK

The first assay has as its target T1, human CD3 expressed on cells (Jurkat, a CD3+ human T-cell line; human T cells) (human, UniProt P07766 23-126; P04234 22-100).
T1 chain 1: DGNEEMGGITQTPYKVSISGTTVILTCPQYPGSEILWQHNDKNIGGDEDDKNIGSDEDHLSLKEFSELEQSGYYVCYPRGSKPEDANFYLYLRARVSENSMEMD
T1 chain 2: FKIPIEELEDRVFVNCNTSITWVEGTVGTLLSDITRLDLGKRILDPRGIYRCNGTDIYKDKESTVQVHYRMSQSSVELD
Nature of the assay: cell-based or functional assay.
On to B1, for which the “U937 Cytotoxicity Human T-cells [M] (EC50)” value worked out at 6.1e-11 M.
As to B2, the “U937 Cytotoxicity Human T-cells [M] (EC50)” value was determined as 6.74e-11 M.
B3: the “U937 Cytotoxicity Human T-cells [M] (EC50)” value stood at 1.4e-10 M.
Turning to B4, the “U937 Cytotoxicity Human T-cells [M] (EC50)” value amounted to 8.71e-11 M.
As to B5, the “U937 Cytotoxicity Human T-cells [M] (EC50)” value came to 8.01e-11 M.
Regarding B6, the “U937 Cytotoxicity Human T-cells [M] (EC50)” value worked out at 1.54e-11 M.
As to B7, the “U937 Cytotoxicity Human T-cells [M] (EC50)” value is 5.16e-11 M.
With B8, the “U937 Cytotoxicity Human T-cells [M] (EC50)” value amounted to 9.65e-11 M.
The same measure, in the same setting: for B9 the value was 8.86e-08 M.
With B10, the “U937 Cytotoxicity Human T-cells [M] (EC50)” value turned out to be 8.85e-11 M.
Turning to B11, the “U937 Cytotoxicity Human T-cells [M] (EC50)” value was found to be 5.76e-10 M.
B12: the “U937 Cytotoxicity Human T-cells [M] (EC50)” value came out at 3.41e-13 M.
Still for that read-out and setting: for B13 the value was 6.89e-13 M; for B14, 1.83e-12 M.
In the case of B15, the “U937 Cytotoxicity Human T-cells [M] (EC50)” value worked out at 5.18e-12 M.
With B16, the “U937 Cytotoxicity Human T-cells [M] (EC50)” value turned out to be 4.03e-12 M.
With B17, the “U937 Cytotoxicity Human T-cells [M] (EC50)” value was 1.85e-11 M.

In the next assay the target is T1, human CD3 expressed on cells (Jurkat, a …). Kind of assay: cell-based or functional assay. This is another data set of the same source.
Consider B18, for which the “U937 Cytotoxicity Human T-cells [M] (EC50)” value is 5.5e-12 M.
Turning to B19, the “U937 Cytotoxicity Human T-cells [M] (EC50)” value was 1.07e-10 M.
Take B20: the “U937 Cytotoxicity Human T-cells [M] (EC50)” value amounted to 4.05e-11 M.
For the molecule B21, the “U937 Cytotoxicity Human T-cells [M] (EC50)” value came to 8.66e-10 M.
